The target in this assay is SARS-CoV-2 Omicron BA.1 spike protein (SARS-CoV-2 (Omicron BA.1)) (UniProt P0DTC2). In words: cryo-EM structure; Tr67 and Omicron BA.1 spike mixed in a 1.5:1 weight ratio, 0.3 mg/ml; single-particle analysis, C3 symmetry, map at ~9 Å.

For “SARS-CoV-2 Omicron BA.1 spike protein (from UniProt P0DTC2 14-1273) (natural protein)”, the stoichiometry N stood at 3.

The record behind these values is article PMC10858482.
